PMC5014551 (2016)

B1: Bol1-Strep [S. cerevisiae] / dihydroxyacid dehydratase (Ilv3) [S. cerevisiae (endogenous in yeast mitochondria)] (parent complex)
chain 1: MFKRAMSTDGPVARTILKRLECGFPDYKNFAFGLYNDSHKHKGHAGVQGNVSAETHFRIEMVSKKFEGLKLPQRHRMVYSLLQDEMAQANGIHALQLSLKTPQEYESKAK
chain 2: not shown
B2: Bol1-Strep [S. cerevisiae] / Isa2 [S. cerevisiae] (parent complex)
chain 1: B1 chain 1
chain 2: MQAKLLFTRLNFRRPSTTLRQFPLTCFLFHSKAFYSDLVTKEPLITPKRIINKTPGLNLSISERASNRLAEIYRNSKENLRISVESGGCHGFQYNLTLEPATKPDIKNDVKDKEFSDDLDDDDSKDIIYVLPEDKGRVIIDSKSLNILNNTTLTYTNELIGSSFKIINGSLKSSCGCGSSFDIEN
B3: Bol1-Strep [S. cerevisiae] / Sdh2 [S. cerevisiae (endogenous in yeast mitochondria)] (parent complex)
chain 1: B1 chain 1
chain 2: TATTAAATHTPRLKTFKVYRWNPDEPSAKPHLQSYQVDLNDCGPMVLDALLKIKDEQDSTLTFRRSCREGICGSCAMNIGGRNTLACICKIDQNESKQLKIYPLPHMFIVKDLVPDLTNFYQQYKSIQPYLQRSSFPKDGTEVLQSIEDRKKLDGLYECILCACCSTSCPSYWWNQEQYLGPAVLMQAYRWLIDSRDQATKTRKAMLNNSMSLYRCHTIMNCTRTCPKGLNPGLAIAEIKKSLAFA
B4: Bol1-Strep [S. cerevisiae] / Lip5 [S. cerevisiae (endogenous in yeast mitochondria)] (parent complex)
chain 1: B1 chain 1
chain 2: SSTIRCGTSATRPIRSNALNTDSDNASVRVPVGNSTEVENATSQLTGTSGKRRKGNRKRITEFKDALNLGPSFADFVSGKASKMILDPLEKARQNTEEAKKLPRWLKVPIPKGTNYHKLKGDVKELGLSTVCEEARCPNIGECWGGKDKSKATATIMLLGDTCTRGCRFCSVKTNRTPSKPDPMEPENTAEAIKRWGLGYVVLTTVDRDDLVDGGANHLAETVRKIKQKAPNTLVETLSGDFRGDLKMVDIMAQCGLDVYAHNLETVESLTPHVRDRRATYRQSLSVLERAKATVPSLITKTSIMLGLGETDEQITQTLKDLRNIQCDVVTFGQYMRPTKRHMKVVEYVKPEKFDYWKERALEMGFLYCASGPLVRSSYKAGEAFIENVLKKRNMK
B5: Bol1-Strep [S. cerevisiae] / Lys4 [S. cerevisiae (endogenous in yeast mitochondria)] (parent complex)
chain 1: B1 chain 1
chain 2: LKGQNLTEKIVQSYAVNLPEGKVVHSGDYVSIKPAHCMSHDNSWPVALKFMGLGATKIKNPSQIVTTLDHDIQNKSEKNLTKYKNIENFAKKHHIDHYPAGRGIGHQIMIEEGYAFPLNMTVASDSHSNTYGGLGSLGTPIVRTDAAAIWATGQTWWQIPPVAQVELKGQLPQGVSGKDIIVALCGLFNNDQVLNHAIEFTGDSLNALPIDHRLTIANMTTEWGALSGLFPVDKTLIDWYKNRLQKLGTNNHPRINPKTIRALEEKAKIPKADKDAHYAKKLIIDLATLTHYVSGPNSVKVSNTVQDLSQQDIKINKAYLVSCTNSRLSDLQSAADVVCPTGDLNKVNKVAPGVEFYVAAASSEIEADARKSGAWEKLLKAGCIPLPSGCGPCIGLGAGLLEPGEVGISATNRNFKGRMGSKDALAYLASPAVVAASAVLGKISSPAEVLSTSEIPFSGVKTEIIENPVVEEEVNAQTEAPKQSVEILEGFPREFSGELVLCDADNINTDGIYPGKYTYQDDVPKEKMAQVCMENYDAEFRTKVHPGDIVVSGFNFGTGSSREQAATALLAKGINLVVSGSFGNIFSRNSINNALLTLEIPALIKKLREKYQGAPKELTRRTGWFLKWDVADAKVVVTEGSLDGPVILEQKVGELGKNLQEIIVKGGLEGWVKSQL
B6: Bol1-Strep [S. cerevisiae] / Bio2 [S. cerevisiae (endogenous in yeast mitochondria)] (parent complex)
chain 1: B1 chain 1
chain 2: TKYATNAAVKSTTASSEASTLGALQYALSLDEPSHSWTKSQLKEIYHTPLLELTHAAQLQHRKWHDPTKVQLCTLMNIKSGGCSEDCKYCAQSSRNDTGLKAEKMVKVDEVIKEAEEAKRNGSTRFCLGAAWRDMKGRKSAMKRIQEMVTKVNDMGLETCVTLGMVDQDQAKQLKDAGLTAYNHNIDTSREHYSKVITTRTYDDRLQTIKNVQESGIKACTGGILGLGESEDDHIGFIYTLSNMSPHPESLPINRLVAIKGTPMAEELADPKSKKLQFDEILRTIATARIVMPKAIIRLAAGRYTMKETEQFVCFMAGCNSIFTGKKMLTTMCNGWDEDKAMLAKWGLQPMEAFKYDRS
B7: Bol1-Strep [S. cerevisiae] / Aco1 [S. cerevisiae (endogenous in yeast mitochondria)] (parent complex)
chain 1: B1 chain 1
chain 2: ATVSNLTRDSKVNQNLLEDHSFINYKQNVETLDIVRKRLNRPFTYAEKILYGHLDDPHGQDIQRGVSYLKLRPDRVACQDATAQMAILQFMSAGLPQVAKPVTVHCDHLIQAQVGGEKDLKRAIDLNKEVYDFLASATAKYNMGFWKPGSGIIHQIVLENYAFPGALIIGTDSHTPNAGGLGQLAIGVGGADAVDVMAGRPWELKAPKILGVKLTGKMNGWTSPKDIILKLAGITTVKGGTGKIVEYFGDGVDTFSATGMGTICNMGAEIGATTSVFPFNKSMIEYLEATGRGKIADFAKLYHKDLLSADKDAEYDEVVEIDLNTLEPYINGPFTPDLATPVSKMKEVAVANNWPLDVRVGLIGSCTNSSYEDMSRSASIVKDAAAHGLKSKTIFTVTPGSEQIRATIERDGQLETFKEFGGIVLANACGPCIGQWDRRDIKKGDKNTIVSSYNRNFTSRNDGNPQTHAFVASPELVTAFAIAGDLRFNPLTDKLKDKDGNEFMLKPPHGDGLPQRGYDAGENTYQAPPADRSTVEVKVSPTSDRLQLLKPFKPWDGKDAKDMPILIKAVGKTTTDHISMAGPWLKYRGHLENISNNYMIGAINAENKKANCVKNVYTGEYKGVPDTARDYRDQGIKWVVIGDENFGEGSSREHAALEPRFLGGFAIITKSFARIHETNLKKQGLLPLNFKNPADYDKINPDDRIDILGLAELAPGKPVTMRVHPKNGKPWDAVLTHTFNDEQIEWFKYGSALNKIKADEKK
B8: Bol3-Strep [S. cerevisiae] / dihydroxyacid dehydratase (Ilv3) [S. cerevisiae (endogenous in yeast mitochondria)] (parent complex)
chain 1: MKLPQTMLRSISVKHVRWPRILTGSKLWYSTQMAMTPEEKMITDKLQQELEPEVCKVQDVSGGCGSMFAINITSKKFNGLSLIKQHQLVNRILRDDISRWHGLQLTTKKSTGKGPASS
chain 2: not shown
B9: Bol1-Strep [S. cerevisiae] / Aco2 [S. cerevisiae (endogenous in yeast mitochondria)] (parent complex)
chain 1: B1 chain 1
chain 2: ATHANMFPSVSKNFQTKVPPYAKLLTNLDKIKQITNNAPLTLAEKILYSHLCDPEESITSSDLSTIRGNKYLKLNPDRVAMQDASAQMALLQFMTTGLNQTSVPASIHCDHLIVGKDGETKDLPSSIATNQEVFDFLESCAKRYGIQFWGPGSGIIHQIVLENFSAPGLMMLGTDSHTPNAGGLGAIAIGVGGADAVDALTGTPWELKAPKILGVKLTGKLNGWSTPKDVITKLAGLLTVRGGTGYIVEYFGEGVSTLSCTGMATICNMGAEIGATTSTFPYQEAHKRYLQATNRAEVAEAADVALNKFNFLRADKDAQYDKVIEIDLSAIEPHVNGPFTPDLSTPISQYAEKSLKENWPQKVSAGLIGSCTNSSYQDMSRVVDLVKQASKAGLKPRIPFFVTPGSEQIRATLERDGIIDIFQENGAKVLANACGPCIGQWNREDVSKTSKETNTIFTSFNRNFRARNDGNRNTMNFLTSPEIVTAMSYSGDAQFNPLTDSIKLPNGKDFKFQPPKGDELPKRGFEHGRDKFYPEMDPKPDSNVEIKVDPNSDRLQLLEPFKPWNGKELKTNVLLKVEGKCTTDHISAAGVWLKYKGHLENISYNTLIGAQNKETGEVNKAYDLDGTEYDIPGLMMKWKSDGRPWTVIAEHNYGEGSAREHAALSPRFLGGEILLVKSFARIHETNLKKQGVLPLTFANESDYDKISSGDVLETLNLVDMIAKDGNNGGEIDVKITKPNGESFTIKAKHTMSKDQIDFFKAGSAINYIGNIRRNE

Variants of: B1
Assay: Strep-tag affinity purification with MS proteomics (spectral counts); parent: 4; read off a plot

For chain 1 H93C, which screen value is on record?
Its screen value is roughly 0%.

Variants of: B2
Assay: Strep-tag affinity purification with MS proteomics (spectral counts); parent: 0; read off a plot

For chain 1 H93C, which screen value is on record?
The screen value was roughly 0%.

Variants of: B3
Assay: as above

With chain 1 H93C as the variant, how does the screen value read?
The screen value was roughly 0%.

Variants of: B4
Assay: as above

chain 1 H93C was tested. Which screen value did it give?
The screen value was roughly 0%.

Variants of: B5
Assay: as above

With chain 1 H93C as the variant, how does the screen value read?
The screen value was roughly 0%.

Variants of: B6
Assay: as above

For chain 1 H93C, which screen value is on record?
The screen value was roughly 0%.

Variants of: B7
Assay: Strep-tag affinity purification with MS proteomics (spectral counts); parent: 3.5; read off a plot

Which screen value does the source give for chain 1 H93C here?
The screen value was roughly 1.5%.

Variants of: B8
Assay: Strep-tag affinity purification with MS proteomics (spectral counts); parent: 16; read off a plot

For chain 1 H101C, which screen value is on record?
The screen value was roughly 45%.

Variants of: B9
Assay: Strep-tag affinity purification with MS proteomics (spectral counts); parent: 0; read off a plot

With chain 1 H93C as the variant, how does the screen value read?
Its screen value is roughly 0%.
